Here are results for one molecule from patent publication US20250134969A1 (CASE WESTERN RESERVE UNIVERSITY, published 2025).

This test concerns the target T1, bovine serum albumin (bovine, UniProt P02769 25-607).
T1 construct: Negative control surface; also called BSA
The test can be described thus: BioFlux microfluidic adhesion, RhB-labeled “VBP+CBP”-decorated liposomes flowed at 25 dyn/cm^2 over albumin-coated channels, fluorescence microscopy. The procedure:
The “VBP+CBP”-decorated nanoparticles and control (undecorated) nano-particles were evaluated for their specific adhesion capabilities utilizing a BioFlux 200 microfluidic system (Fluxion Biosciences) and observed under inverted fluorescence microscope imaging. This system allows simulation of a physiologically relevant vascular flow environment. Here, the microfluidic channels were incubated with either 0.3 wt % bovine serum albumin (BSA) in water or 40 μg/mL equine type 1 fibrillar collagen and 10 μg/mL vWF in 20 μM acetic acid for 1.5 h. Unbound albumin and collagen were removed with a saline rinse. […] Fluorescence microscopy imaging of particle Rhodamine B label was used to quantify the extent of particle adhesion to the coated surfaces. Thrombin release kinetics was measured by sealing the column-separated t-TLNPs in a MWCO 100 K dialysis bag, placing the bag in a TBS reservoir, and removing aliquots from the reservoir at predefined time points over the course of 6 h (fresh TBS was added back to the reservoir appropriately after each aliquot removal). […] Thrombin concentrations from the collected aliquots were evaluated using a human thrombin ELISA and plotted over time to determine the release profile. […]

Ends that are not written are not given here.

T1 sequence (P02769 25-607 limits assumed): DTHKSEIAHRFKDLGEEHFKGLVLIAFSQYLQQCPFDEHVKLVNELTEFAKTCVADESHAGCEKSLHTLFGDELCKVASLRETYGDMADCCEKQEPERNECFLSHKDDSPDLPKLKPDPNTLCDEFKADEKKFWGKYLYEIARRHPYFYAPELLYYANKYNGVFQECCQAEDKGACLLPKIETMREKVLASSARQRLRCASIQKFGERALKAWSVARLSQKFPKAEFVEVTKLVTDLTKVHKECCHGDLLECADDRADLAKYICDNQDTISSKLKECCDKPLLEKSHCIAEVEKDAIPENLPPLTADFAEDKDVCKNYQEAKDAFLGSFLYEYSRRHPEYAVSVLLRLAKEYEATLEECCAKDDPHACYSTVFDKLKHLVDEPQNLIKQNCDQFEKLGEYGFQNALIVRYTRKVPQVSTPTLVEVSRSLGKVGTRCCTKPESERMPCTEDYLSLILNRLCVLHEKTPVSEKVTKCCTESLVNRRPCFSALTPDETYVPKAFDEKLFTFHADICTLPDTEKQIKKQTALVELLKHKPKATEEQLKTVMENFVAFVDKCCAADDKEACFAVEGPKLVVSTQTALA

B1: vWF-binding peptide (VBP), cysteinylated, CTRYLRIHPQSWVHQI, conjugated to DSPE-PEG2K and displayed on liposomal nanoparticles (peptide)
peptide: C(DSPE‑PEG2000‑maleimide)TRYLRIHPQSWVHQI
notes: In every adhesion assay the peptide stood on the surface of liposomes (1.25 mol % DSPE-PEG2K-VBP) together with CBP (1.25 mol %); also called DSPE-PEG2K-VBP
For B1, the binding result is recorded as “no binding”.
